Measured values reported in article PMC7862292, “Crystal structures of non-oxidative decarboxylases reveal a new mechanism of action with a catalytic dyad and structural twists” (Scientific Reports, 2021).

What was measured:
[1] = target: T1, AGDC1 (Blastobotrys adeninivorans, UniProt A0A060TAG5); assay: UV decrease of gallic acid at […] nm; format: biochemical; conditions: read-out: % inhibition at 0.5 mM
T1 construct: synthetic gene in pET15b, E. coli C41, N-terminal His6 tag removed by thrombin; trimer with central K+ and peripheral Co2+ sites

[2] = target: T2, PPP2 (Madurella mycetomatis, UniProt A0A175WC91); assay: UV decrease of substrate at […] nm; format: biochemical; conditions: 0.5 mM substrate, 50 mM KPi pH 6.5, RT, 160 ug/ml enzyme; decarboxylation to pyrogallol, weaker than protocatechuic acid
T2 construct: gene MMYC01_201259; synthetic gene in pET15b, E. coli C41, N-terminal His6 tag removed by thrombin; trimer with central K+; no cobalt site

[3] = target: T2, PPP2; assay: UV decrease of substrate at […] nm; format: biochemical; conditions: 0.5 mM substrate, 50 mM KPi pH 6.5, RT, 160 ug/ml enzyme; decarboxylation to catechol
[4] = target: AGDC1 E88A mutant (Arxula adenivorans); assay: SEC; Superdex 200 10/300; with (25 mM Tris 7.5, 50 mM KCl, 100 mM NaCl) or without (25 mM Tris 7.5, 100 mM NaCl) potassium; Bio-rad Gel Filtration Standard; all proteins eluted as a single peak
[5] = target: Pea Pathogenity Protein (PPP2) from Madurella mycetomatis (Madurella mycetomatis); assay: as above
[6] = target: Pea Pathogenity Protein (PPP2) from Madurella mycetomatis (Madurella mycetomatis); assay: crystal structure; hanging drop vapor diffusion, protein 10 mg/ml in 20 mM Tris pH 7.5, with or without 5 mM nitrocatechol alone or with 0.5 mM CoCl2; AGDC1 in PEG 3350, 0.2 M potassium salt, MES; PPP2 in PEG 3350, 0.2 M calcium chloride, MES pH 5.5
[7] = target: gallic acid decarboxylase AGDC1 from Arxula adenivorans (Arxula adenivorans); assay: SEC; Superdex 200 10/300; with (25 mM Tris 7.5, 50 mM KCl, 100 mM NaCl) or without (25 mM Tris 7.5, 100 mM NaCl) potassium; Bio-rad Gel Filtration Standard; all proteins eluted as a single peak
[8] = target: gallic acid decarboxylase AGDC1 from Arxula adenivorans (Arxula adenivorans); assay: crystal structure; hanging drop vapor diffusion, protein 10 mg/ml in 20 mM Tris pH 7.5, with or without 5 mM nitrocatechol alone or with 0.5 mM CoCl2; AGDC1 in PEG 3350, 0.2 M potassium salt, MES; PPP2 in PEG 3350, 0.2 M calcium chloride, MES pH 5.5

T1 sequence (A0A060TAG5 entry or part of it): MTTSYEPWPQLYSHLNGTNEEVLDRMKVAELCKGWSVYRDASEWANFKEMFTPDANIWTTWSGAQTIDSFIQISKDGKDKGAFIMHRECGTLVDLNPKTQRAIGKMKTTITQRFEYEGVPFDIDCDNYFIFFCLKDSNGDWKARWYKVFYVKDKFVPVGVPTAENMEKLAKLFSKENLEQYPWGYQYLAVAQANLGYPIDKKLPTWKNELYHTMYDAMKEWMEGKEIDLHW

Molecule `O=[N+]([O-])c1ccc(O)c(O)c1` [4-nitrocatechol] has an inhibition at 500 µM [1] of 98%.

`O=C(O)c1cc(O)c(O)c(O)c1` [gallic acid] was tested, and the “UV decrease of substrate at 259 nm” value [2] was “PPP2 activity with PCA was ~ sevenfold higher than with GA”.

With `O=C(O)c1ccc(O)c(O)c1` [protocatechuic acid] the “UV decrease of substrate at 250 nm” value [3] was “PPP2 activity with PCA was ~ sevenfold higher than with GA”.

With AGDC1 E88A mutant (enzyme) the stoichiometry N [4] was 3.

Work on “Pea Pathogenity Protein (PPP2) from Madurella mycetomatis (enzyme)” yielded a stoichiometry N [5] of 3 and a stoichiometry N [6] of 3.

“gallic acid decarboxylase AGDC1 from Arxula adenivorans (enzyme)” showed a stoichiometry N [7] of 3 and a stoichiometry N [8] of 3.
